Sequences and labels used below:
B1: SPD-M3-V1, displayed on the bacterial surface, stabilized (peptide)
chain: VLSF[Aha]DYWNLL[Aha]GS
modifications: triazole 5-12 via Bis(1,2,3triazol4ylCH2)ether
B2: SPD-M3-V1, displayed on the bacterial surface, non-stabilized (peptide)
chain: VLSF[Aha]DYWNLL[Aha]GS
B3: SPD-M3-G1, synthetic, stabilized (peptide)
chain: GGTF[Aha]GYWADL[Aha]AF-NH2
modifications: triazole 5-12 via Bis(1,2,3triazol4ylCH2)ether
B4: SPD-M3-V1, synthetic, non-stabilized (peptide)
chain: VLSF[Aha]DYWNLL[Aha]GS-NH2
B5: SPD-M3-G1, synthetic, non-stabilized (peptide)
chain: GGTF[Aha]GYWADL[Aha]AF-NH2
B6: SPD-M3-V1, synthetic, stabilized (peptide)
chain: VLSF[Aha]DYWNLL[Aha]GS-NH2
modifications: triazole 5-12 via Bis(1,2,3triazol4ylCH2)ether

What is called Kd is the free concentration of one partner at which half of the binding sites on the other are occupied at equilibrium, for simple one-to-one binding. Read a low Kd as tighter binding.

Numbered stars: 1 amine (or outer) side, 2 acyl side, 3 side chain; on linkers, the order of the positions; unused ones are H or OH. Bridge positions count the residues as written; N and C are the ends. Square brackets hold non-standard residues; d marks the D form. Ends that are not written are not given here. Bis(1,2,3triazol4ylCH2)ether = c1c(COCc2cn([*:2])nn2)nnn1[*:1]; Aha = [N-]=[N+]=NCC[C@H](N)C(=O)O

biotinylated MDM2 truncate (residues 10-118), sequence (Q00987 10-118): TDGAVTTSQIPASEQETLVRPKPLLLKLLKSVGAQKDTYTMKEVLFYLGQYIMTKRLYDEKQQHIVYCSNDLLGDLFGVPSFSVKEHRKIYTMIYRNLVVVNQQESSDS
AlexaFluor647 tagged MDM2-GST, sequence (Q00987 whole entry): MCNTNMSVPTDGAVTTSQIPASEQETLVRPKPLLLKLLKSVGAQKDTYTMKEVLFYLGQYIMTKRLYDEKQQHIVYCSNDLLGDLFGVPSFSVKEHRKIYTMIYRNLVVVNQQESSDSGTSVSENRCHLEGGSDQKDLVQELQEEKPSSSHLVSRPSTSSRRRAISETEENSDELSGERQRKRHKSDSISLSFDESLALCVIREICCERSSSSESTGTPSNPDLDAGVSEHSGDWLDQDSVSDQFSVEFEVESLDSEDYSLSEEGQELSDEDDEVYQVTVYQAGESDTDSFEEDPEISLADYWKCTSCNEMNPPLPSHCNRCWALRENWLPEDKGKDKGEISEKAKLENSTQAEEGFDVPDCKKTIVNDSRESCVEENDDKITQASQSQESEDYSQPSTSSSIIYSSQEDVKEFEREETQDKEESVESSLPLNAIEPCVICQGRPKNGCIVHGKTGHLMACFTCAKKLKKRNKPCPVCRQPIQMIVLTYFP

The first assay has as its target AlexaFluor647 tagged MDM2-GST (UniProt Q00987 1-491, AlexaFluor647 label). Put plainly: flow cytometry on cells. (In general: A flow cytometer gives signals particle by particle.)
B1 gave a Kd of 9.8 ± 3.4 nM. In the case of B2, the affinity, expressed as Kd, was 64 ± 33 nM.

Another assay concerns the target biotinylated MDM2 truncate (residues 10-118) (UniProt Q00987 10-118, biotin (NHS-PEG4-Biotin)). The experiment in a line: BLI.
Take B3: the affinity, expressed as Kd, was 5.1 nM. Regarding B4, binding was put at a Kd of 131 nM. Molecule B5 yielded a Kd of 21 nM. Regarding B6, the Kd was found to be 14 nM.
